Results from patent publication US12258605B2, “Alkane oxidation by modified hydroxylases” (The California Institute of Technology, priority 2005, dated 2025).
Substitutions are numbered along the chain they refer to. Names and notes keep the numbering of the source. “Also recorded” adds a separate entry of the source.

B1: 35-E11: P450 BM-3 variant, SEQ ID NO:7: 53-5H substitutions plus E464G and I710T (protein)
chain: TIKEMPQPKTFGELKNLPLLNTDKPVQALMKIADELGEIFKFEAPGCVTRYLSSQRLIKEACDESRFDKNLSQALKFFRDFSGDGLFTSWTHEINWKKAHNILLPSFSQQAMKGYHAMMVDIAVQLVQKWERLNADEHIEVSEDMTRLTLDTIGLCGFNYRFNSFYRDQPHPFIISMVRALDEVMNKLQRANPDDPAYDENKRQCQEDIKVMNDLVDKIIADRKARGEQSDDLLTQMLNGKDPETGEPLDDGNISYQIITFLIAGHETTSGLLSFALYFLVKNPHVLQKVVEEAARVLVDPVPSYKQVKQLKYVGMVLNEALRLWPTFPAFSLYAKEDTVLGGEYPLEKGDEVMVLIPQLHRDKTIWGDDVEEFRPERFENPSAIPQHAFKPFGNGQRACIGQQFALHEATLVLGMMLKHFDFEDHTNYELDIKETLTLKPEGFVVKAKSKKIPLGGIPSPSTGQSAKKVRKKAENAHNTPLLVLYGSNMGTAEGTARDLADIAMSKGFAPQVATLDSHAGNLPREGAVLIVTASYNGHPPDNAKQFVDWLDQASADEVKGVRYSVFGCGDKNWATTYQKVPAFIDETLAAKGAENIADRGEADASDDFEGTYEEWREHMWSDVAAYFNLDIENSEDNKSTLSLQFVDSAADMPLAKMHGAFSTNVVASKELQQPGSARSTRHLEIELPKEASYQEGDHLGVIPRNYEGTVNRVTARFGLDASQQIRLEAEEEKLAHLPLAKTVSVEELLQYVELQDPVTRTQLRAMAAKTVCPPHKVELEALLEKQAYKEQVLAKRLTMLELLEKYPACEMKFSEFIALLPSIRPRYYSISSSPRVDEKQASITVSVVSGEAWSGYGEYKGIASNYLAELQEGDTITCFISTPQSEFTLPKDPETPLIMVGPGTGVAPFRGFVQARKQLKEQGQSLGEAHLYFGCRSPHEDYLYQEELENAQSEGIITLHTAFSRMPNQPKTYVQHVMEQDGKKLIELLDQGAHFYICGDGSQMAPAVEATLMKSYADVHQVSEADARLWLQQLEEKGRYAKDVWAG
modifications: mutant P450 35-E11 protein sequence
B2: P450PMO: P450 BM-3 variant, SEQ ID NO:125; 7-7 plus G443A and D698G; propane monooxygenase (protein)
chain: B1 chain with L52I, A74E, S82G, L188P, I366V, G443A, D698G
modifications: Mutant P450PMO protein sequence
notes: 7-7 plus G443A and D698G; propane monooxygenase
B3: Wild-type BM-3: wild-type cytochrome P450 BM-3 from Bacillus megaterium, SEQ ID NO:1 (protein, listed as Bacillus megaterium)
chain: TIKEMPQPKTFGELKNLPLLNTDKPVQALMKIADELGEIFKFEAPGRVTRYLSSQRLIKEACDESRFDKNLSQALKFVRDFAGDGLFTSWTHEKNWKKAHNILLPSFSQQAMKGYHAMMVDIAVQLVQKWERLNADEHIEVPEDMTRLTLDTIGLCGFNYRFNSFYRDQPHPFITSMVRALDEAMNKLQRANPDDPAYDENKRQFQEDIKVMNDLVDKIIADRKASGEQSDDLLTHMLNGKDPETGEPLDDENIRYQIITFLIAGHETTSGLLSFALYFLVKNPHVLQKAAEEAARVLVDPVPSYKQVKQLKYVGMVLNEALRLWPTAPAFSLYAKEDTVLGGEYPLEKGDELMVLIPQLHRDKTIWGDDVEEFRPERFENPSAIPQHAFKPFGNGQRACIGQQFALHEATLVLGMMLKHFDFEDHTNYELDIKETLTLKPEGFVVKAKSKKIPLGGIPSPSTEQSAKKVRKKAENAHNTPLLVLYGSNMGTAEGTARDLADIAMSKGFAPQVATLDSHAGNLPREGAVLIVTASYNGHPPDNAKQFVDWLDQASADEVKGVRYSVFGCGDKNWATTYQKVPAFIDETLAAKGAENIADRGEADASDDFEGTYEEWREHMWSDVAAYFNLDIENSEDNKSTLSLQFVDSAADMPLAKMHGAFSTNVVASKELQQPGSARSTRHLEIELPKEASYQEGDHLGVIPRNYEGIVNRVTARFGLDASQQIRLEAEEEKLAHLPLAKTVSVEELLQYVELQDPVTRTQLRAMAAKTVCPPHKVELEALLEKQAYKEQVLAKRLTMLELLEKYPACEMKFSEFIALLPSIRPRYYSISSSPRVDEKQASITVSVVSGEAWSGYGEYKGIASNYLAELQEGDTITCFISTPQSEFTLPKDPETPLIMVGPGTGVAPFRGFVQARKQLKEQGQSLGEAHLYFGCRSPHEDYLYQEELENAQSEGIITLHTAFSRMPNQPKTYVQHVMEQDGKKLIELLDQGAHFYICGDGSQMAPAVEATLMKSYADVHQVSEADARLWLQQLEEKGRYAKDVWAG

Tests used:
[1] = Kinetic constants for n-alkanes: pentane; format: biochemical; conditions: N.a. = not active
Description: Rate measurements. Initial rates of product formation were determined at 25° C. in 100 mM KPi pH 8.0 buffer using purified protein (100 nM) and a substrate concentration of 1.6 mM. In a 5 mL-vial, 20 μL of alkane solution (in ethanol) were dissolved in 400 μL KPi buffer, to which 500 μL enzyme solution at 100-200 nM was added. Reaction was initiated by adding 100 μL of 5 mM NADPH solution, followed by stirring at 300 rpm for 1 minute, and quenched by adding 200 μL chloroform and stirring at 800 rpm for 10 sec. Solutions were transferred to an Eppendorf tube, to which internal standard (10 μL 25 mM 1-bromohexane in ethanol) was added. Tubes were vortexed for 10 sec and centrifuged for 30 sec at 10,000 g. Organic phase was removed and analyzed by GC. For propane, reactions were carried out in a 5 mL-scale using 100-400 nM purified enzyme, propane-saturated buffer (propane concentration≈1.6 mM) and a final NADPH concentration of 500 μM. Reactions were stopped by addition of 200 μL H2SO4 conc. and analyzed by derivatization to alkyl nitrites followed by GC-ECD analysis as described below.
Products from alkane reactions were identified and quantified by gas chromatography using authentic standards and calibration curves with internal standards. For the reactions with alkanes from pentane to decane, GC analyses were carried out using a Shimadzu GC-17A gas chromatograph, Agilent HP5 column (30 m×0.32 mm×0.1 μm film), 1 μL injection, FID detector, and the following separation program: 250° C. inlet, 250° C. detector, 50° C. oven for 3 min, 5° C./min gradient to 100° C., 25° C./min gradient to 230° C., and 230° C. for 3 min. For butane and propane (TTN) reactions, GC analyses were carried out using a Hewlett-Packard 5890 Series II Plus gas chromatograph, Supelco SPB-1 column (60 m×0.52 mm×0.5 μm film), 0.5 μL injection, FID detector, and the following separation program: 250° C. inlet, 275° C. detector, 80° C. oven for 2 min, 10° C./min gradient to 110° C., 25° C./min gradient to 275° C., and 275° C. for 2.5 min. For ethane and propane (rate) reactions, analysis of reaction mixtures was carried out by derivatization to alkyl nitrites followed by GC-ECD analysis. For laurate, reaction product analysis was carried out by derivatization with N-methyl-N-trimethylsilylheptafluorobutyramide followed by extraction with hexane. Organic solutions were analyzed by FID-GC.
To further investigate the evolution of substrate specificity, kinetic constants for the C5 to C8 alkanes were determined from Michaelis-Menten plots (Table 19). The preference of 35E11 and its evolutionary predecessors for medium-chain alkanes is indicated by their high C8/C5 specificities ((kcat/Km)8/(kcat/Km)5˜100), where Km appears to be the major contributing factor. […]

[2] = Reactions on laurate; format: biochemical; conditions: laurate 2 mM, 5 hours, room temperature
Description: Reactions on laurate. P450PMO activity on laurate was tested mixing the substrate (2 mM) with purified protein (up to 0.5 μM) in 100 mM KPi pH 8.0 buffer, and adding NADPH to final concentration of 1 mM. Reaction mixtures were incubated for 5 hours at room temperature under gentle stirring. Analysis of the hydroxylated products was carried out by derivatization with N-methyl-N-trimethylsilylheptafluorobutyramide (Aldrich) followed by GC analysis according to a published procedure. A control experiment was carried out using wild-type P450BM3.
Products from alkane reactions were identified and quantified by gas chromatography using authentic standards and calibration curves with internal standards. For the reactions with alkanes from pentane to decane, GC analyses were carried out using a Shimadzu GC-17A gas chromatograph, Agilent HP5 column (30 m×0.32 mm×0.1 μm film), 1 μL injection, FID detector, and the following separation program: 250° C. inlet, 250° C. detector, 50° C. oven for 3 min, 5° C./min gradient to 100° C., 25° C./min gradient to 230° C., and 230° C. for 3 min. […] Organic solutions were analyzed by FID-GC. […]

[3] = lauric acid; cited from earlier work

| Molecule | Km [1] | kcat [1] | hydroxylation products of laurate [2] | hydroxylation at the ω-1 position [3] |
| --- | --- | --- | --- | --- |
| B1 | 1030 ± 57 µM | 760 ± 52 min⁻¹ |  |  |
| B2 | 835 ± 117 µM | 150 ± 14 min⁻¹ | no hydroxylation product could be detected; also recorded: no detectable amounts of hydroxylated fatty acids |  |
| B3 |  |  | multiple hydroxylation products were detected | 48% |
